± gives the half width of the 95% confidence interval.
How the values were obtained:
[1] = folding stability dG unfold from trypsin proteolysis; higher = more stable
Summary of the method: (§1)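 Designed mini-proteins (under 80 residues, no cysteine) in a PA-tagged cDNA display construct were digested with trypsin and chymotrypsin. Each protease was used at 11 concentrations (threefold dilutions) plus a no-protease condition, followed by sequencing. K50 was inferred by Bayesian fitting of sequencing counts, and unfolding free energy was derived against a sequence-predicted unfolded-state K50 and a shared folded-state K50, per protease or combined. Only designs with AlphaFold2 dimer inter-PAE above 15 were kept.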

[2] = folding stability dG unfold (combined trypsin and chymotrypsin); higher = more stable
Summary of the method: as §1

[3] = folding stability dG unfold from chymotrypsin proteolysis; higher = more stable
Summary of the method: as §1

Sequence | folding stability dG unfold [1] [kcal/mol] | folding stability dG unfold [2] [kcal/mol] | folding stability dG unfold [3] [kcal/mol]
SAGGSAGGSAGVSTTPDGVLVIKVKDPNTGKYTEIKVPTSRPEEAEKLKEKALEEGLELESAGGSAGGSAGG [r11_538_JUSTAS] | 0.708 ± 0.038 | 1.2 ± 0.053 | 1.49 ± 0.022
SAMNTRTVTLTIERPPGSPETLEAVRARLAALGFTVTSESEEVLPDESLTRVTLTVEDPGVPETLLALLSAG [r14_956_JUSTAS] | 1.65 ± 0.021 | 1.91 ± 0.06 | 2.03 ± 0.057
SAGGSAGGSAGGMFLIKLPNGKVLLFESEEEAKAALEELTGKPVDLENLEIVPLPEEELSAGGSAGGSAGGS [r10_62_TrROS_Hall] | 3.65 ± 0.14 | 3.3 ± 0.11 | 3.14 ± 0.045
SMKIEPHPDGTVTFTIPAEFPDIPAEEIAALIEKALPPGVRLGEEITVERDPETGEVRVTAKVEVPPDAVSA [r9_1011_TrMRF] | 2.49 ± 0.12 | 2.74 ± 0.12 | 2.81 ± 0.073
SAGGSAGGSAGDGWRKASFIIDPNGEILEPIPLPPGVKVEVEPFPGDGMYFVEITIPPDDSAGGSAGGSAGG [r11_32_TrROS] | -0.497 ± 0.22 | 0.378 ± 0.17 | 0.684 ± 0.099
SAKMKLPEGAKPIAEKDGITIVEVPNKVIIRVRLPDGKEVTLTFPKSDLEEIEALIRELKDAGIEEIEFSAG [r14_12_TrROS_Hall] | 0.876 ± 0.024 | 0.815 ± 0.07 | 0.762 ± 0.12
SAGGSAWPAKEIAKELNPGFPVDVEPEPVPNKDGKDMVTIEARFPNGWKIQIVFRNGKPEAIQWQKSAGGSA [r15_417_TrROS] | 1.47 ± 0.032 | 1.97 ± 0.095 | 2.28 ± 0.11
SAGALPPDQVVPIPVLVRLSEDDPELREAIERGEVVEFELPGPLRLLAEFEPLPEDLVLVTLYLEVPEGSAG [r5_223_TrMRF] | 1.28 ± 0.052 | 1.98 ± 0.17 | 2.3 ± 0.062
SAGGSAGGSAIPKAPVTVTVTTADGRPALATVEYYPDGVLVTVHYGDKTVTAWVAPADISASAGGSAGGSAG [r3_373_TrMRF] | 0.864 ± 0.053 | 1.54 ± 0.17 | 2.19 ± 0.11
SAGMDIELVVPIESPGSPEEIEKTVEELKEKLEKLGYKVEVSREIHPVGDKLVATITIKITAPPDLPLLSAG [r5_217_JUSTAS] | 3.49 ± 0.28 | 2.85 ± 0.16 | 2.31 ± 0.095
SAGGSAGGSAMKEIKIELTYEDEEEAEKKAKEEKEKIKKELEEKGIKVEKITVEIHPPYHHSAGGSAGGSAG [r3_463_JUSTAS] | -0.647 ± 0.095 | 0.796 ± 0.14 | 1.12 ± 0.067
SMTVSATAVPFGDRLVVTVTVTVDPTLFPDRPPGPAVWERVARELARELGIDSVTLAPLPDDTFVALFDDSA [r9_883_TrMRF] | 2.41 ± 0.069 | 2.48 ± 0.084 | 2.46 ± 0.04
SAGDLSPSDTVDLEVTPVKVGDKWVHEVRVTVTLPDGSSLRSTLRLPPELGPPRRGRLSVPEFVALVAASAG [r5_831_JUSTAS] | 1.85 ± 0.024 | 2.14 ± 0.11 | 2.39 ± 0.044
SAGGMIKPGEKVKVRAVLRVGEEEEEIELELPLPENATVEDIAQAILDLIPEEPRKDAEVDIEVEPVSAGGS [r16_321_TrMRF] | -0.468 ± 0.3 | 0.93 ± 0.14 | 1.21 ± 0.094
SAGGSAGGSAGGKKPKPIKVKVLKYYKNGKIEEKEYTFESPEDLEEFIKANPEVKVLEISSAGGSAGGSAGG [r11_802_TrMRF] | 3.04 ± 0.34 | 4.58 ± 0.17 | 4.76 ± 0.082
SAGGSAGGSAMTRDVTIKVPPGVTPEEVFEKLKKENPNVTSYTTTTLPDGTITVTITIEDSSAGGSAGGSAG [r3_371_JUSTAS] | 3.94 ± 0.23 | 4.05 ± 0.19 | 4.04 ± 0.12
SAGGSAGGSSPLIEKLRKDPNVTKIEIDTVKNTTYIYTPNKIYIINSKGEIEKVEEVSPEILKSAGGSAGGS [r12_895_JUSTAS] | 0.743 ± 0.067 | 1.81 ± 0.17 | 2.36 ± 0.072
SAGGSAGGSPDNWITFIFISISYKWKITKWDPENGGWKIEIKDVSIEIEIIRLPADDADKLFKSAGGSAGGS [r12_723_TrROS] | 2.63 ± 0.079 | 3.85 ± 0.13 | 4.34 ± 0.062
SAGGSEEERKRILEELKKKNPEKDVEVKVERKTYKVPAGTVVTLPDGTKIVAPADTTVEIYKVEIIKSAGGS [r16_357_JUSTAS] | 1.32 ± 0.068 | 1.95 ± 0.2 | 2.14 ± 0.037
SAGGAPLSSSEEVEALLKEGGAEFVSKTSVTITEPGVPVTVNVYTIRVKDPSSDKWTLVEVPSSLLSSAGGS [r16_271_JUSTAS] | 0.192 ± 0.12 | 0.409 ± 0.15 | 0.429 ± 0.2
SAGGPLTEEQLKEQAKQIKDQLAKEFADMNGFPVTEIDDVEVVPDGWISIEIEYPGMGMPYTITIPWSAGGS [r16_622_TrROS] | 0.887 ± 0.053 | 1.02 ± 0.095 | 1.02 ± 0.16

Sequence | folding stability dG unfold [1] [kcal/mol] | folding stability dG unfold [2] [kcal/mol] | folding stability dG unfold [3] [kcal/mol]
GYRPALAVVELGPNSRLLLRPPEGPSVEIEVESPEEALAAALKLLPKDQPLVLEVFDEGKLIETIPIEIPPS [r1_276_TrMRF] | 0.973 ± 0.036 | 1.55 ± 0.095 | 1.87 ± 0.069
SAGKALSPEELARYVREKYGLPADAPITIEEVPGKYTLSLPDLRVEVTVTDDTTTVTLRPPDPGPEAALSAG [r5_190_JUSTAS] | 0.97 ± 0.044 | 1.42 ± 0.14 | 1.57 ± 0.16
SAGKPVLLKIEIEVKVNGKTVKLELEILVEPGETIEELLAALPGVEEVKIKIEPISLEELEELKKKKPSAGG [r19_339_TrROS_Hall] | 0.867 ± 0.23 | 1.53 ± 0.3 | 1.88 ± 0.059
SAGGKTLYVRIIIENKKTGKKEEKIIKIKNVKTLDELLEKAKKEAEKKGYKIKKIEVYDKKTGKKLKLSAGG [r13_771_TrROS_Hall] | 1.79 ± 0.088 | 1.73 ± 0.39 | 1.28 ± 0.27
SAGGSASPSEVRTITATLPGGVVREFEVKMPPGTTVYIPEEGKTITVPPDSSLPLPPDVSVEVRLESAGGSA [r15_152_JUSTAS] | -0.353 ± 0.017 | -0.148 ± 0.058 | -0.106 ± 0.021
SAGGSAMEIVAVEKGDNTVTLLLRDPETGELYTATFHFIPGSKTVHATVTFPDGSTATFTFDATALSAGGSA [r15_1055_TrMRF] | 2.82 ± 0.09 | 4.01 ± 0.12 | 4.32 ± 0.068
SKYVQVRFPNYTIMVKKRKSPNGKPEVEVMLYNPPNGKMIPVEVKSPEDAEEAVKDAIRAMFPDEELRDLSA [r9_749_TrROS] | 0.827 ± 0.09 | 0.687 ± 0.17 | 0.46 ± 0.47
SAGGSAGGMIIQEVEEFKDKSEEEVKKKMLEELKKKYPKSYKVKITVTKNPSGKYTVTVTITPNSAGGSAGG [r6_964_JUSTAS] | 2.19 ± 0.047 | 2.51 ± 0.071 | 2.65 ± 0.059
SAGGSAGGSAQWVIRIKMPNGSTRELRIPGMTPEKAREIAKELADQNNIKDVDIYPPGQKISAGGSAGGSAG [r3_160_TrROS] | 0.981 ± 0.041 | 0.727 ± 0.1 | 0.393 ± 0.17
SAGGKVEVETKAYFIPETGEVVLLTTVRVETDEEPSEEERENLPEGATRTETFTFVFVFPAKPGSLLSAGGS [r8_274_TrMRF] | 2.46 ± 0.064 | 3.19 ± 0.092 | 3.52 ± 0.044
SAGGSAGGSAGGDITIDTEQMPNGWHTVKVRLPNGKPIAPVPMPPGMTPEEAVKRALDRLSAGGSAGGSAGG [r7_444_TrROS] | 0.0871 ± 0.065 | 0.0336 ± 0.12 | -0.407 ± 0.25
SAGGSAGGSAGGDWITFTNPGGYKVTVEVDENGWMRVEVYPNGKPQEVPMPLEELKKNAPSAGGSAGGSAGG [r7_178_TrROS] | -0.451 ± 0.18 | 0.423 ± 0.19 | 0.868 ± 0.17
SAGGSAGGSAGGSPYVQIRFEIPVWKFKPGGWEPVNPMPIPIWVPADDPPAAKDIAEEISAGGSAGGSAGGS [r4_153_TrROS] | 0.724 ± 0.07 | 0.849 ± 0.09 | 0.839 ± 0.18
SAGGSAGGSMNTTTTPTAVPAGATLTVTVTSSSKSYSVPPAGPVTVTTTSGSSGTTVTVDVVASAGGSAGGS [r12_919_JUSTAS] | 0.314 ± 0.022 | 0.53 ± 0.043 | 0.618 ± 0.051
SAGGVIELPNAGLPEFLAFLKEAAEKGIPNVTVILTGPSKPYLAIYDPKKNIVTVLHPNGKTYTFKASAGGS [r16_481_TrMRF] | 2.76 ± 0.15 | 2.91 ± 0.12 | 2.99 ± 0.058
SAGMYSETLLEEREYPDGTKEKLYRITKPGGVEELRLVREPLTFDPNNGGPGRKEEVKTAKPDEEIELESAG [r5_122_JUSTAS] | 0.721 ± 0.026 | 1.03 ± 0.1 | 1.12 ± 0.14
SAGGSASVSPVTLPLEVAPDEEVEGTLTLTLPSGPTVTYTAEITEVSPDGTANPVVTIDDTPVVVESAGGSA [r15_844_JUSTAS] | 1.39 ± 0.053 | 0.965 ± 0.045 | 0.392 ± 0.091
SAGGWIPPGAEIEIDEIGPDGTITVKIKYPDGKPMSITMRRQRDKDGKRYIELYFPGSGRPIASFPIKSAGG [r13_527_TrROS] | 1.84 ± 0.03 | 1.78 ± 0.09 | 1.57 ± 0.08
SAGGSAGGSAGGSPGVGERVVPVEDGVVRVRVFPDFAVVEYENGGVETMTLDDLVRALSSAGGSAGGSAGGS [r4_242_TrMRF] | 0.497 ± 0.064 | 0.601 ± 0.14 | 0.65 ± 0.053
SAGGGTATVTTAEAELPGDVRVTTATVTLPDGSAVRVVTLSSSVPNATATVVVPLPANGPGEGVIVLPSAGG [r13_323_TrMRF] | 1.44 ± 0.073 | 1.15 ± 0.069 | 0.785 ± 0.056
PVKVIEIRVEDPEKTAEEILAELRKKLPEEVKELRLFIVTPDGRVREIEPGETLADLLKPGDTVRIVVVERS [r1_56_TrROS_Hall] | 4.81 ± 0.34 | > 6 | 5.66 ± 0.45

Reference: the supplement of paper PMC12764529
